Measurements: patent US20190169232A1

Legend:
[1] = target: C1q purified from pooled normal human sera (human) (UniProt P02746); assay: SPR kinetics, C1q immobilised on a CM5 chip, HMGB1 redox form as analyte in a concentration series, 1:1 fit
[2] = target: LAIR-1 on human monocytes (human) (UniProt Q6GTX8); assay: co-immunoprecipitation from human monocytes, IP anti-LAIR-1, blot anti-SHP-1; cells treated with C1q alone
[3] = target: LAIR-1 on human monocytes (human) (UniProt Q6GTX8); assay: co-immunoprecipitation from human monocytes, IP anti-LAIR-1, blot anti-SHP-1; cells treated with HMGB1 alone
[4] = target: LAIR-1 on human monocytes (human) (UniProt Q6GTX8); assay: co-immunoprecipitation from human monocytes, IP anti-LAIR-1, blot anti-SHP-1; cells treated with C1q and HMGB1
[5] = target: LAIR-1 on human monocytes (human) (UniProt Q6GTX8); assay: co-immunoprecipitation from human monocytes, IP anti-LAIR-1, blot anti-SHP-1; cells without C1q and without HMGB1

Sequence of LAIR-1 on human monocytes (human) (Q6GTX8 22-287): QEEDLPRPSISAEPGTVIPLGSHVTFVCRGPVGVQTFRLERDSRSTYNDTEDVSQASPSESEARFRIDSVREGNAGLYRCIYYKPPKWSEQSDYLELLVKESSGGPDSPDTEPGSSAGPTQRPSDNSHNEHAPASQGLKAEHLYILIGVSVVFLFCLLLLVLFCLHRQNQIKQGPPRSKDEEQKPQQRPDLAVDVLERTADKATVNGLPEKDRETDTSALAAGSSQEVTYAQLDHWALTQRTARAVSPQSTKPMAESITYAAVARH
Sequence of Oxidized HMGB1 (ligand) (P09429 whole entry): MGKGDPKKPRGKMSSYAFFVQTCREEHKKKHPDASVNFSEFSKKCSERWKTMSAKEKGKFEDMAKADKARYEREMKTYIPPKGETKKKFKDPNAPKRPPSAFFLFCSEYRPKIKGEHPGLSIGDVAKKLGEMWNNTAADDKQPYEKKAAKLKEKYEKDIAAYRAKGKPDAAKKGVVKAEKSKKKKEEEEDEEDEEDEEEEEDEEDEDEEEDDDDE
Sequence of C1q purified from pooled normal human sera (human) (chain, as listed by the source, chain 1 of 3): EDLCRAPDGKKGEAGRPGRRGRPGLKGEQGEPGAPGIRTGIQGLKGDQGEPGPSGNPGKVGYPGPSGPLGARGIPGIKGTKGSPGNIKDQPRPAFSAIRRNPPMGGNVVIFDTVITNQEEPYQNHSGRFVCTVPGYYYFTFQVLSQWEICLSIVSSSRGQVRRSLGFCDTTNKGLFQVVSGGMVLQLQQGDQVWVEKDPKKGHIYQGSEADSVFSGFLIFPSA
Sequence of C1q purified from pooled normal human sera (human) (P02746 28-253, chain 2 of 3): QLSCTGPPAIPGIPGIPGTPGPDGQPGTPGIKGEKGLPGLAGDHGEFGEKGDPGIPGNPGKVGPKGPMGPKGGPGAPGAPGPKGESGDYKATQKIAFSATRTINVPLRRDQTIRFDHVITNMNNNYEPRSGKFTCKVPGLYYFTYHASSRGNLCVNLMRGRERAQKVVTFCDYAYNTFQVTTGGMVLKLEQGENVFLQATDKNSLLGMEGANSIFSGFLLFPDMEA
Sequence of C1q purified from pooled normal human sera (human) (P02747 29-245, chain 3 of 3): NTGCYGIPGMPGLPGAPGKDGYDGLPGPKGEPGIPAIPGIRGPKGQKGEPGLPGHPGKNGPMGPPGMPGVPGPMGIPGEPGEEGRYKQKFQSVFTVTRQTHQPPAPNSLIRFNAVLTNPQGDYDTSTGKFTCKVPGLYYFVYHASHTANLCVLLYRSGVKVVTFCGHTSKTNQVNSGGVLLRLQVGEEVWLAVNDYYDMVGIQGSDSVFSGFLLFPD

## Oxidized HMGB1 (ligand)
[1]
  Kd: 1560 nM

## SHP-1 (from UniProt P29350 1-595)
[2]
  signal intensity ratio (number under the SHP-1 blot): 2.6
[3]
  signal intensity ratio (number under the SHP-1 blot): 0.7
[4]
  signal intensity ratio (number under the SHP-1 blot): 4.4
[5]
  signal intensity ratio (number under the SHP-1 blot): 1
